Values quoted from earlier work as cited in patent US4183849A, “Therapeutic insulin preparation and a process for the production of a stable insulin preparation with protracted effect” (Nordisk Insulinlaboratorium, priority 1975, dated 1980).

Conditions: impurities of recrystallized insulin, stated as known

**Q.** Which antigenicity does the source give for proinsulin here?
**A.** highly antigenic
